Substitutions are numbered along the chain they refer to. Names may count otherwise.
B1: CE115HA000/GLS3000 Q90E one-arm antibody (antibody, human IgG1, kappa, L234A L235A, N297A, name in Kabat numbering)
heavy: QVQLVESGGGVVQPGRSLRLSCAASGFTFSNAWMHWVRQAPGKGLEWVAQIKAKSNNYATYYAESVKGRFTISRDDSKNSLYLQMNSLKTEDTAVYYCRYVHYGAYYGVDAWGQGTTVTVSSASTKGPSVFPLAPSSKSTSGGTAALGCLVKDYFPEPVTVSWNSGALTSGVHTFPAVLQSSGLYSLSSVVTVPSSSLGTQTYICNVNHKPSNTKVDKKVEPKSCDKTHTCPPCPAPEAAGGPSVFLFPPKPKDTLMISRTPEVTCVVVDVSHEDPEVKFNWYVDGVEVHNAKTKPREEQYASTYRVVSVLTVLHQDWLNGKEYKCKVSNKALPAPIEKTISKAKGQPREPQVYTLPPSRCELTKNQVSLSCAVKGFYPSDIAVEWESNGQPENNYKTTPPVLDSDGSFFLVSKLTVDKSRWQQGNVFSCSVMHEALHNHYTQKSLSLSPDYKDDDDK
chain: EPKSSDKTHTCPPCPAPELLGGPSVFLFPPKPKDTLMISRTPEVTCVVVDVSHEDPEVKFNWYVDGVEVHNAKTKPREEQYNSTYRVVSVLTVLHQDWLNGKEYKCKVSNKALPAPIEKTISKAKGQPREPQVCTLPPSRDELTKNQVSLWCLVKGFYPSDIAVEWESNGQPENNYKTTPPVLDSDGSFFLYSKLTVDKSRWQQGNVFSCSVMHEALHNRYTQKSLSLSP
light: DIVMTQSPLSLPVTPGEPASISCRSSQSLVHSNRNTYLHWYQQKPGQAPRLLIYKVSNRFSGVPDRFSGSGSGTDFTLKISRVEAEDVGVYYCGEGTQVPYTFGQGTKLEIKRTVAAPSVFIFPPSDEQLKSGTASVVCLLNNFYPREAKVQWKVDNALQSGNSQESVTEQDSKDSTYSLSSTLTLSKADYEKHKVYACEVTHQGLSSPVTKSFNRGEC
notes: one-arm IgG1
B2: CE115HA000/GLS3000 Q93A one-arm antibody (antibody, human IgG1, kappa, L234A L235A, N297A, name in Kabat numbering)
heavy: B1 heavy
chain: B1 chain
light: B1 light with E95Q, Q98A
notes: one-arm IgG1
B3: CE115HA000/GLS3000 Q93D one-arm antibody (antibody, human IgG1, kappa, L234A L235A, N297A, name in Kabat numbering)
heavy: B1 heavy
chain: B1 chain
light: B1 light with E95Q, Q98D
notes: one-arm IgG1
B4: CE115HA000/GLS3000 Q93E one-arm antibody (antibody, human IgG1, kappa, L234A L235A, N297A, name in Kabat numbering)
heavy: B1 heavy
chain: B1 chain
light: B1 light with E95Q, Q98E
notes: one-arm IgG1
B5: CE115HA000/GLS3000 R54D one-arm antibody (antibody, human IgG1, kappa, L234A L235A, N297A, name in Kabat numbering)
heavy: B1 heavy
chain: B1 chain
light: B1 light with R59D, E95Q
notes: one-arm IgG1
B6: CE115HA000/GLS3000 R54E one-arm antibody (antibody, human IgG1, kappa, L234A L235A, N297A, name in Kabat numbering)
heavy: B1 heavy
chain: B1 chain
light: B1 light with R59E, E95Q
notes: one-arm IgG1
B7: CE115HA000/GLS3000 R54G one-arm antibody (antibody, human IgG1, kappa, L234A L235A, N297A, name in Kabat numbering)
heavy: B1 heavy
chain: B1 chain
light: B1 light with R59G, E95Q
notes: one-arm IgG1
B8: CE115HA000/GLS3000 R54P one-arm antibody (antibody, human IgG1, kappa, L234A L235A, N297A, name in Kabat numbering)
heavy: B1 heavy
chain: B1 chain
light: B1 light with R59P, E95Q
notes: one-arm IgG1
B9: CE115HA000/GLS3000 R54Q one-arm antibody (antibody, human IgG1, kappa, L234A L235A, N297A, name in Kabat numbering)
heavy: B1 heavy
chain: B1 chain
light: B1 light with R59Q, E95Q
notes: one-arm IgG1
B10: CE115HA000/GLS3000 R54S one-arm antibody (antibody, human IgG1, kappa, L234A L235A, N297A, name in Kabat numbering)
heavy: B1 heavy
chain: B1 chain
light: B1 light with R59S, E95Q
notes: one-arm IgG1
B11: CE115HA000/GLS3000 R54T one-arm antibody (antibody, human IgG1, kappa, L234A L235A, N297A, name in Kabat numbering)
heavy: B1 heavy
chain: B1 chain
light: B1 light with R59T, E95Q
notes: one-arm IgG1
B12: CE115HA000/GLS3000 R54W one-arm antibody (antibody, human IgG1, kappa, L234A L235A, N297A, name in Kabat numbering)
heavy: B1 heavy
chain: B1 chain
light: B1 light with R59W, E95Q
notes: one-arm IgG1
B13: CE115HA000/GLS3000 S52D one-arm antibody (antibody, human IgG1, kappa, L234A L235A, N297A, name in Kabat numbering)
heavy: B1 heavy
chain: B1 chain
light: B1 light with S57D, E95Q
notes: one-arm IgG1
B14: CE115HA000/GLS3000 S52P one-arm antibody (antibody, human IgG1, kappa, L234A L235A, N297A, name in Kabat numbering)
heavy: B1 heavy
chain: B1 chain
light: B1 light with S57P, E95Q
notes: one-arm IgG1
B15: CE115HA000/GLS3000 S52Q one-arm antibody (antibody, human IgG1, kappa, L234A L235A, N297A, name in Kabat numbering)
heavy: B1 heavy
chain: B1 chain
light: B1 light with S57Q, E95Q
notes: one-arm IgG1
B16: CE115HA000/GLS3000 S52Y one-arm antibody (antibody, human IgG1, kappa, L234A L235A, N297A, name in Kabat numbering)
heavy: B1 heavy
chain: B1 chain
light: B1 light with S57Y, E95Q
notes: one-arm IgG1
B17: CE115HA000/GLS3000 S56D one-arm antibody (antibody, human IgG1, kappa, L234A L235A, N297A, name in Kabat numbering)
heavy: B1 heavy
chain: B1 chain
light: B1 light with S61D, E95Q
notes: one-arm IgG1
B18: CE115HA000/GLS3000 S56E one-arm antibody (antibody, human IgG1, kappa, L234A L235A, N297A, name in Kabat numbering)
heavy: B1 heavy
chain: B1 chain
light: B1 light with S61E, E95Q
notes: one-arm IgG1
B19: CE115HA000/GLS3000 S56F one-arm antibody (antibody, human IgG1, kappa, L234A L235A, N297A, name in Kabat numbering)
heavy: B1 heavy
chain: B1 chain
light: B1 light with S61F, E95Q
notes: one-arm IgG1
B20: CE115HA000/GLS3000 S56G one-arm antibody (antibody, human IgG1, kappa, L234A L235A, N297A, name in Kabat numbering)
heavy: B1 heavy
chain: B1 chain
light: B1 light with S61G, E95Q
notes: one-arm IgG1
B21: CE115HA000/GLS3000 S56H one-arm antibody (antibody, human IgG1, kappa, L234A L235A, N297A, name in Kabat numbering)
heavy: B1 heavy
chain: B1 chain
light: B1 light with S61H, E95Q
notes: one-arm IgG1
B22: CE115HA000/GLS3000 S56I one-arm antibody (antibody, human IgG1, kappa, L234A L235A, N297A, name in Kabat numbering)
heavy: B1 heavy
chain: B1 chain
light: B1 light with S61I, E95Q
notes: one-arm IgG1
B23: CE115HA000/GLS3000 S56K one-arm antibody (antibody, human IgG1, kappa, L234A L235A, N297A, name in Kabat numbering)
heavy: B1 heavy
chain: B1 chain
light: B1 light with S61K, E95Q
notes: one-arm IgG1
B24: CE115HA000/GLS3000 S56L one-arm antibody (antibody, human IgG1, kappa, L234A L235A, N297A, name in Kabat numbering)
heavy: B1 heavy
chain: B1 chain
light: B1 light with S61L, E95Q
notes: one-arm IgG1
B25: CE115HA000/GLS3000 S56M one-arm antibody (antibody, human IgG1, kappa, L234A L235A, N297A, name in Kabat numbering)
heavy: B1 heavy
chain: B1 chain
light: B1 light with S61M, E95Q
notes: one-arm IgG1
B26: CE115HA000/GLS3000 S56N one-arm antibody (antibody, human IgG1, kappa, L234A L235A, N297A, name in Kabat numbering)
heavy: B1 heavy
chain: B1 chain
light: B1 light with S61N, E95Q
notes: one-arm IgG1
B27: CE115HA000/GLS3000 S56P one-arm antibody (antibody, human IgG1, kappa, L234A L235A, N297A, name in Kabat numbering)
heavy: B1 heavy
chain: B1 chain
light: B1 light with S61P, E95Q
notes: one-arm IgG1
B28: CE115HA000/GLS3000 S56Q one-arm antibody (antibody, human IgG1, kappa, L234A L235A, N297A, name in Kabat numbering)
heavy: B1 heavy
chain: B1 chain
light: B1 light with S61Q, E95Q
notes: one-arm IgG1
B29: CE115HA000/GLS3000 S56R one-arm antibody (antibody, human IgG1, kappa, L234A L235A, N297A, name in Kabat numbering)
heavy: B1 heavy
chain: B1 chain
light: B1 light with S61R, E95Q
notes: one-arm IgG1
B30: CE115HA000/GLS3000 S56T one-arm antibody (antibody, human IgG1, kappa, L234A L235A, N297A, name in Kabat numbering)
heavy: B1 heavy
chain: B1 chain
light: B1 light with S61T, E95Q
notes: one-arm IgG1
B31: CE115HA000/GLS3000 S56V one-arm antibody (antibody, human IgG1, kappa, L234A L235A, N297A, name in Kabat numbering)
heavy: B1 heavy
chain: B1 chain
light: B1 light with S61V, E95Q
notes: one-arm IgG1
B32: CE115HA000/GLS3000 S56W one-arm antibody (antibody, human IgG1, kappa, L234A L235A, N297A, name in Kabat numbering)
heavy: B1 heavy
chain: B1 chain
light: B1 light with S61W, E95Q
notes: one-arm IgG1
B33: CE115HA000/GLS3000 S56Y one-arm antibody (antibody, human IgG1, kappa, L234A L235A, N297A, name in Kabat numbering)
heavy: B1 heavy
chain: B1 chain
light: B1 light with S61Y, E95Q
notes: one-arm IgG1
B34: CE115HA000/GLS3000 T31D one-arm antibody (antibody, human IgG1, kappa, L234A L235A, N297A, name in Kabat numbering)
heavy: B1 heavy
chain: B1 chain
light: B1 light with T36D, E95Q
notes: one-arm IgG1
B35: CE115HA000/GLS3000 T31E one-arm antibody (antibody, human IgG1, kappa, L234A L235A, N297A, name in Kabat numbering)
heavy: B1 heavy
chain: B1 chain
light: B1 light with T36E, E95Q
notes: one-arm IgG1

These binders were tested against T1, CD3 epsilon homodimer protein (UniProt P07766 23-126) (assay: SPR (Biacore T200), CD3e homodimer on CM4 chip, antibody as analyte; KD ratio vs unaltered GLS3000;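 also: CD3 epsilon homodimer amine-coupled to the sensor surface, antibodies injected as analyte at 25 °C with HBS-EP+ running buffer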).
T1 construct: also called CD3 (CD3 epsilon)
T1 sequence (P07766 23-126): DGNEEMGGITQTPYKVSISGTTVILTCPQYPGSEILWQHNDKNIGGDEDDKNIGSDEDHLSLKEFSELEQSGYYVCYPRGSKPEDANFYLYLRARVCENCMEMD
With B1 the “KD ratio to GLS3000” value was 0.91 ratio.
For B2, the “KD ratio to GLS3000” value was 0.65 ratio.
B3 was tested, and the “KD ratio to GLS3000” value was 0.72 ratio.
With B4 the “KD ratio to GLS3000” value was 1.05 ratio.
B5 was tested, and the “KD ratio to GLS3000” value was 1.8 ratio.
B6 was tested, and the “KD ratio to GLS3000” value was 0.84 ratio.
With B7 the “KD ratio to GLS3000” value was 0.88 ratio.
For B8, the “KD ratio to GLS3000” value was 1.05 ratio.
For B9, the “KD ratio to GLS3000” value was 1.04 ratio.
For B10, the “KD ratio to GLS3000” value was 0.78 ratio.
B11 was tested, and the “KD ratio to GLS3000” value was 0.89 ratio.
B12 was tested, and the “KD ratio to GLS3000” value was 0.65 ratio.
B13 was tested, and the “KD ratio to GLS3000” value was 0.94 ratio.
B14 was tested, and the “KD ratio to GLS3000” value was 7.38 ratio.
B15 was tested, and the “KD ratio to GLS3000” value was 1.01 ratio.
B16 was tested, and the “KD ratio to GLS3000” value was 1.02 ratio.
For B17, the “KD ratio to GLS3000” value was 1.11 ratio.
With B18 the “KD ratio to GLS3000” value was 0.91 ratio.
With B19 the “KD ratio to GLS3000” value was 1.12 ratio.
In the case of B20, the “KD ratio to GLS3000” value is reported as 0.99 ratio.
B21 was tested, and the “KD ratio to GLS3000” value was 0.96 ratio.
With B22 the “KD ratio to GLS3000” value was 1.01 ratio.
In the case of B23, the “KD ratio to GLS3000” value is reported as 1.21 ratio.
For B24, the “KD ratio to GLS3000” value was 1.03 ratio.
For B25, the “KD ratio to GLS3000” value was 0.93 ratio.
With B26 the “KD ratio to GLS3000” value was 0.9 ratio.
In the case of B27, the “KD ratio to GLS3000” value is reported as 0.98 ratio.
In the case of B28, the “KD ratio to GLS3000” value is reported as 0.97 ratio.
B29 was tested, and the “KD ratio to GLS3000” value was 1.15 ratio.
With B30 the “KD ratio to GLS3000” value was 1.01 ratio.
In the case of B31, the “KD ratio to GLS3000” value is reported as 0.94 ratio.
For B32, the “KD ratio to GLS3000” value was 1.12 ratio.
B33 was tested, and the “KD ratio to GLS3000” value was 1.1 ratio.
For B34, the “KD ratio to GLS3000” value was 30.9 ratio.
B35 was tested, and the “KD ratio to GLS3000” value was 1.59 ratio.

Source: patent US20240270846A1 (published 2024)
